In publication PMC8635974:

Biological target: M3R-YFP (muscarinic acetylcholine receptor M3 with YFP fused C-terminally) (UniProt P20309)
Test: FRET or BRET; single-cell FRET in HEK293T cells transfected with M3R-YFP, Gαq, Gβ1 and mTurquoise2-Gγ2; laminar superfusion with buffer (137 mM NaCl, 5.4 mM KCl, 2 mM CaCl2, 1 mM MgCl2, 10 mM HEPES, pH 7.3) or agonist (ACh 30 µM, Metha, Fur, Are, Guva, Pilo, Mda one after the other in the same cell); amplitudes normalized to ACh; room temperature

Chain of UniProt P20309 (P20309 whole entry, the tested form may be a part): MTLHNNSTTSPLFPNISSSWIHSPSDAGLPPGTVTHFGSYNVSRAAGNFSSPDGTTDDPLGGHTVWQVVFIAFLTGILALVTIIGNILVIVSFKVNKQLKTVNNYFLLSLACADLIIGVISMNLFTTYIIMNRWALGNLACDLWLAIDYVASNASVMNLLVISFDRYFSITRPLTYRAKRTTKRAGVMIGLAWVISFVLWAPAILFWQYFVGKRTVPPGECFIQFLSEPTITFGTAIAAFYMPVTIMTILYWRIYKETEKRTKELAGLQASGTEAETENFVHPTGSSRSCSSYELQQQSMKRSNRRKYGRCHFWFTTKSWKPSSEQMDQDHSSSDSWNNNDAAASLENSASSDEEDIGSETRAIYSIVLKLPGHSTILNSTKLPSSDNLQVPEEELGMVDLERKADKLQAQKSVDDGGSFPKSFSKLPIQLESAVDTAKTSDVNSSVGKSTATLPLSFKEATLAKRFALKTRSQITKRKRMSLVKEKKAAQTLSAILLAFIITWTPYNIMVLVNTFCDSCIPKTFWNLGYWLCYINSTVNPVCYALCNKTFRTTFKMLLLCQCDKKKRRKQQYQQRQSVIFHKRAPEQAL

FRET amplitude with Are as agonist, relative to ACh (% of the ACh signal): 20
FRET amplitude with Fur as agonist, relative to ACh (% of the ACh signal): 60
FRET amplitude with Guva as agonist, relative to ACh (% of the ACh signal): 20
FRET amplitude with Mda as agonist, relative to ACh (% of the ACh signal): 8
FRET amplitude with Metha as agonist, relative to ACh (% of the ACh signal): 60
FRET amplitude with Pilo as agonist, relative to ACh (% of the ACh signal): 8
Substance: Gq protein (Gαq, Gβ1 and mTurquoise2-Gγ2) (from UniProt P50148 1-359; P62873 1-340; P59768 1-71) (complex; other documents disagree on this pair)
